Assay results from patent publication US20250206836A1 (ONA THERAPEUTICS S L, published 2025).
Residue numbers refer to the chain shown, from its start. Numbers in names are those of the source. One block for each binder: values may come before it.

Legend:
[1] = biological target: T1, nonhuman primate CD36 (on HEK 293 cells) (cynomolgus monkey / rhesus macaque, UniProt P16671 2-472 (human entry)); assay: FACS, HEK 293 cells transiently overexpressing CD36;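 for EC50: antibody binding to transfected cells detected by flow cytometry with a fluorescent anti-human secondary antibody, EC50 from a four-parameter sigmoidal fit of mean fluorescence intensity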
T1 construct: also called non-human primate CD36 (cynomolgus)
Description: (§1) After transiently transfecting the HEK 293 cells with a CD36 expression construct, cells were treated with three-fold serial dilution of each candidate antibody (10 dilutions starting at 500 nM). […] After incubation with the cells, an anti-human fluorescently labelled antibody was added to the cell media, allowed to incubate further, and the unbound antibody was washed off of the cells. Subsequently, the cells were subjected to FACS analysis to determine antibody binding to the cells. The results were fitted to a sigmoidal titration curve. Using a nonlinear regression model, the EC₅₀ values for each antibody were calculated from the GeoMFI and MFI values using the log(agonist) versus response (four parameters) fitting on the data transformed according to X=Log[X] in GraphPad PRISM.

[2] = biological target: T2, human CD36 (on HEK 293 or SCC25 cells) (human, UniProt P16671 2-472); assay: as above
T2 construct: Overexpressed transiently or stably on HEK 293 cells, or stably on SCC25 cells; also called huCD36
Description: as §1

[3] = biological target: T3, mouse CD36 (on HEK 293 cells) (mouse, UniProt Q08857 1-472); assay: as above
T3 construct: also called Murine CD36
Description: as §1

[4] = biological target: T4, purified biotin-tagged human CD36 (human, UniProt P16671 30-439, limits assumed, biotin tag, site not stated); assay: AlphaScreen competition; competitor 1G04 on acceptor beads;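 note: streptavidin donor beads excited at 680 nm release singlet oxygen, and the light signal needs a nearby acceptor bead, with 30 min donor-bead incubation at 25 °C in the dark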
[5] = biological target: T4, purified biotin-tagged human CD36; assay: AlphaScreen competition; competitor FA6-152 on acceptor beads
Description: This was done using the AlphaScreen® bead-based microplate assay. […] AlphaLISA® Streptavidin Donor Beads were then added and the mix incubated for 30 min at 25° C. in the dark. The donor bead contains a photosensitizer, which upon excitation by light at 680 nm, converts oxygen (O₂) into an excited form, singlet oxygen. Singlet oxygen molecules have a reduced lifetime (4 microseconds half-life) and can diffuse approximately 200 nm in solution before falling back to ground state. In the absence of acceptor beads, the singlet oxygen molecules fall back to ground state without producing any light signal.

[6] = biological target: T2, human CD36 (on HEK 293 or SCC25 cells); assay: cell-based or functional assay
[7] = biological target: T2, human CD36 (on HEK 293 or SCC25 cells); assay: cell-based or functional assay; remark: listed apart in the source
[8] = biological target: T2, human CD36 (on HEK 293 or SCC25 cells); assay: cell-based or functional assay; remark: listed apart in the source
[9] = biological target: T2, human CD36 (on HEK 293 or SCC25 cells); assay: FACS, SCC25 cells stably expressing human CD36
Description: SCC25 cells were treated with 10-fold serial dilution of each antibody (5 dilutions starting at 100 nM). After incubation with the cells, an anti-human fluorescently labelled antibody was added to the cell media, allowed to incubate further, and the unbound antibody was washed off of the cells. Subsequently, the cells were subjected to FACS analysis to determine antibody binding to the cells. The results were fitted to a sigmoidal titration curve. Using a nonlinear regression model, the EC₅₀ values for each antibody were calculated from the GeoMFI and MFI values using the log(agonist) versus response (four parameters) fitting on the data transformed according to X=Log[X] in GraphPad PRISM.

[10] = biological target: T2, human CD36 (on HEK 293 or SCC25 cells); assay: FACS, SCC25 cells stably overexpressing human CD36
Description: as §1

[11] = biological target: T1, nonhuman primate CD36 (on HEK 293 cells); assay: FACS, HEK 293 cells transiently overexpressing CD36; remark: listed apart in the source;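 for EC50: antibody binding to transfected cells detected by flow cytometry with a fluorescent anti-human secondary antibody, EC50 from a four-parameter sigmoidal fit of mean fluorescence intensity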
Description: as §1

[12] = biological target: T5, human CD36 (His-tagged) (human, UniProt P16671 30-439); assay: SPR (Biacore T200), His-captured CD36, bivalent analyte model
T5 construct: not shown: His tag

[13] = biological target: human FcRn (human, UniProt P55899 24-297; P61769 21-119); assay: SPR at pH 5.8, antibody immobilized through its light chains, soluble human FcRn
Description: (§2) The binding of the different Fc-formatted anti-CD36 antibodies to FcγRs and FcRn was measured by SPR by immobilizing the antibodies through their light chains. The setup for these assays orients the antibody such that the Fc domain is solvent-exposed, allowing quantification of the interaction with soluble receptor proteins. Antibodies with well-defined binding properties were included as positive/negative controls in all the assays.

[14] = biological target: T6, human CD36 (Sino Biological) (human, UniProt P16671 30-439); assay: ELISA, plates coated with human CD36 (Sino Biological), antibody titrated, OD630nm
T6 construct: Bought protein coated on ELISA plates
Excerpt: Binding was first tested using an ELISA assay in which 96-well ELISA plates were coated with human CD36 (Sino Biological) or mouse CD36 protein.

[15] = biological target: T7, C1q human protein (human, UniProt P02745 23-245; P02746 28-253; P02747 29-245); assay: ELISA, plates coated with the antibody, C1q human protein titrated, Mean Absorbance (OD Units)
T7 construct: also called complement C1q protein
Description: Binding to complement C1q protein was also measured, using a standard ELISA assay in which 96-well ELISA plates were coated with the tested antibodies and C1q human protein was added (2.5-fold serial dilution starting at 250 g/mL).

[16] = biological target: T8, Human FcγRIIb (human, UniProt P31994); assay: SPR, antibody immobilized through its light chains, soluble receptor injected; Mean Relative Response (RU)
T8 construct: soluble receptor protein; bar 7 of each group
T8 sequence (receptor, looked up): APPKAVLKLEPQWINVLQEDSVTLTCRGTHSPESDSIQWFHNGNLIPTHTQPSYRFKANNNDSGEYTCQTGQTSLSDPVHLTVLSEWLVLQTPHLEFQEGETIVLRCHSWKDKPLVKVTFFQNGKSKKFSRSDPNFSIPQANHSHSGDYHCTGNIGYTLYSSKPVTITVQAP
Description: as §2

[17] = biological target: T9, Cyno FcγRIIa (Macaca fascicularis, UniProt A0A140HDN0); assay: as above
T9 construct: soluble receptor protein; bar 8 of each group
T9 sequence (receptor): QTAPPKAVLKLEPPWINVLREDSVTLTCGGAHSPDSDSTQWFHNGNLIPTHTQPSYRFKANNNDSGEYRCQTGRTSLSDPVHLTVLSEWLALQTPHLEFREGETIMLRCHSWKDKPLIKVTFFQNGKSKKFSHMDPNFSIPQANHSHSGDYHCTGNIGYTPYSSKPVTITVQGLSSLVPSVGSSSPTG
Description: as §2

[18] = biological target: T10, Human FcγRI (human, UniProt P12314); assay: as above
T10 construct: soluble receptor protein; bar 10 of each group
Description: as §2

[19] = biological target: T11, Human FcγRIIIa (158F) (human, UniProt P08637); assay: as above
T11 construct: soluble receptor protein; bar 1 of each group
Description: as §2

[20] = biological target: T12, Human FcγRIIIa (158V) (human, UniProt P08637); assay: as above
T12 construct: soluble receptor protein; bar 2 of each group
Description: as §2

[21] = biological target: T13, Human FcγRIIIb (human, UniProt O75015); assay: as above
T13 construct: soluble receptor protein; bar 3 of each group
Description: as §2

[22] = biological target: T14, Cyno FcγRIII (cynomolgus monkey, UniProt Q8SPW2); assay: as above
T14 construct: soluble receptor protein; bar 4 of each group
Description: as §2

[23] = biological target: T15, Human FcγRIIa (131H) (human, UniProt P12318); assay: as above
T15 construct: soluble receptor protein; bar 5 of each group
T15 sequence (receptor, looked up): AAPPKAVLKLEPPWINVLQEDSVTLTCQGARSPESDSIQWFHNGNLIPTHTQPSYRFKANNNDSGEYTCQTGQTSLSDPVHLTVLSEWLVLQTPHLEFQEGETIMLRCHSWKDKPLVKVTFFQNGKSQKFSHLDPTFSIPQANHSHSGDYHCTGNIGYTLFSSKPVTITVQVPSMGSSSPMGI
Description: as §2

[24] = biological target: T16, Human FcγRIIa (131R) (human, UniProt P12318); assay: as above
T16 construct: soluble receptor protein; bar 6 of each group
T16 sequence (receptor, looked up): T15 sequence (receptor, looked up) with H132R
Description: as §2

[25] = biological target: T17, Cyno FcγRIIb (Macaca fascicularis, UniProt A0A140HDP4); assay: as above
T17 construct: soluble receptor protein; bar 9 of each group
T17 sequence (receptor): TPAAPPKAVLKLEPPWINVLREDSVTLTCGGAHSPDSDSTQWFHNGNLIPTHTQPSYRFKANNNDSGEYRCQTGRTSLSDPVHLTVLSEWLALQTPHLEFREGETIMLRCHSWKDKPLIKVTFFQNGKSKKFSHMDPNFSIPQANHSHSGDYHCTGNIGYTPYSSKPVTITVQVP
Description: as §2
Throughout, for Percent Fatty Acid Uptake Inhibition: test concentration or dose not given here.

T1 sequence (P16671 other isoform, or with tags, fused parts or gaps limits assumed): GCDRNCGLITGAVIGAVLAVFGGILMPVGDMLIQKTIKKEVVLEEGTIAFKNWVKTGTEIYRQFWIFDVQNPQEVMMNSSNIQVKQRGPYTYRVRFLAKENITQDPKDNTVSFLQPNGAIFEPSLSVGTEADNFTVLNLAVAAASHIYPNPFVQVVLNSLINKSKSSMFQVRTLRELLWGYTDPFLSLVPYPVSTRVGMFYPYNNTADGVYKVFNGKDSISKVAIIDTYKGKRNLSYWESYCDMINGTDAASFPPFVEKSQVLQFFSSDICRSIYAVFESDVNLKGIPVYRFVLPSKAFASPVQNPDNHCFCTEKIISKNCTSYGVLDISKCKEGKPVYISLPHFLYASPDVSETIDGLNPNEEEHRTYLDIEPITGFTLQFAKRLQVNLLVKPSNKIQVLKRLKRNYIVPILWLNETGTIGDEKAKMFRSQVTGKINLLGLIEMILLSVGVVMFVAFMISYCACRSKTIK
T5 sequence (P16671 30-439 limits assumed): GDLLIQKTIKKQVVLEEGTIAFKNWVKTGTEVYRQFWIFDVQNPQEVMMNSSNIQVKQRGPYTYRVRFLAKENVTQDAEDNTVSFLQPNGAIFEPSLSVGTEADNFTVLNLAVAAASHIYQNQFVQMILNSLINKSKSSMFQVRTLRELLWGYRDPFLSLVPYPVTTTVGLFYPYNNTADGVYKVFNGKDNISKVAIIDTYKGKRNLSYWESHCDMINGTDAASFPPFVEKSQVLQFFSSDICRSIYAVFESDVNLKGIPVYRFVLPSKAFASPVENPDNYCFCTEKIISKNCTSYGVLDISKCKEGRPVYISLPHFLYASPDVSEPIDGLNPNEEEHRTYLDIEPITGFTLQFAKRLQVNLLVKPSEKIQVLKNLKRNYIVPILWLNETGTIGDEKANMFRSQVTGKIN
T4 sequence (P16671 30-439 limits assumed): as above
T6 sequence (P16671 30-439 limits assumed): as above
T2 sequence (P16671 2-472 limits assumed): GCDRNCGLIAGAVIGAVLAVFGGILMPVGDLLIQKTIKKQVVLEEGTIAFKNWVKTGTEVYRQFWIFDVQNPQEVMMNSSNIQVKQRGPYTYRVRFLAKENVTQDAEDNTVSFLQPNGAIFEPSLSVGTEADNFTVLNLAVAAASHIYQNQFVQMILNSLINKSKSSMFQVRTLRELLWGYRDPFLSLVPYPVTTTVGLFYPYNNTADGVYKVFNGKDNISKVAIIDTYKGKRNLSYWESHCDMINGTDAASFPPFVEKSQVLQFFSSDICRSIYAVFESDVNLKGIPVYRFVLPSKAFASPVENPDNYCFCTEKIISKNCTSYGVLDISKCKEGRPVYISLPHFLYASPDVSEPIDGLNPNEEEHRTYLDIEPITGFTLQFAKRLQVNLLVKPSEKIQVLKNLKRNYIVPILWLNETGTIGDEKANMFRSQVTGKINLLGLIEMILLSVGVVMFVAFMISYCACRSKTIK
T14 sequence (Q8SPW2 17-208 limits assumed): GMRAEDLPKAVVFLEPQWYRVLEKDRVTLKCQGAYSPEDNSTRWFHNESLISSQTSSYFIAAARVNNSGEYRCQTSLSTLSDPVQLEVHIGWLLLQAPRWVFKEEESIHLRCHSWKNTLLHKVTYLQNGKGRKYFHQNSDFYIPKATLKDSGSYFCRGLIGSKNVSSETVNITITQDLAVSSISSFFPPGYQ
T11 sequence (P08637 17-208 limits assumed): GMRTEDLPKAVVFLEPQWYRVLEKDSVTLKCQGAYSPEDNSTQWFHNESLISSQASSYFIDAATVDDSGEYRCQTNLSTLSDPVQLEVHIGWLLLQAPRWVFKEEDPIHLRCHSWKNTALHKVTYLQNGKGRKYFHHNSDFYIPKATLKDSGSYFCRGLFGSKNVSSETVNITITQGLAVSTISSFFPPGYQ
T13 sequence (O75015 17-200 limits assumed): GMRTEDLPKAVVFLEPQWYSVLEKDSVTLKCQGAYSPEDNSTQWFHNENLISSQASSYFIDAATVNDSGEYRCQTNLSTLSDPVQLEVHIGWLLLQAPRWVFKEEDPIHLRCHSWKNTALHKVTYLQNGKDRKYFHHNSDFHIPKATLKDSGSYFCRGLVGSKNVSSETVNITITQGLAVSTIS
T7 sequence (P02745 23-245 limits assumed, chain 1 of 3): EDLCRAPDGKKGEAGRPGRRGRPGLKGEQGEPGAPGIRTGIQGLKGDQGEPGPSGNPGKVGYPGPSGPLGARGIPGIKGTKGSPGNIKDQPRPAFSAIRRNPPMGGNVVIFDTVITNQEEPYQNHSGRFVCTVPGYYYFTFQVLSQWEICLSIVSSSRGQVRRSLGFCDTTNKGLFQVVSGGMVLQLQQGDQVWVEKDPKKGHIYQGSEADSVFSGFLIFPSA
T7 sequence (P02746 28-253 limits assumed, chain 2 of 3): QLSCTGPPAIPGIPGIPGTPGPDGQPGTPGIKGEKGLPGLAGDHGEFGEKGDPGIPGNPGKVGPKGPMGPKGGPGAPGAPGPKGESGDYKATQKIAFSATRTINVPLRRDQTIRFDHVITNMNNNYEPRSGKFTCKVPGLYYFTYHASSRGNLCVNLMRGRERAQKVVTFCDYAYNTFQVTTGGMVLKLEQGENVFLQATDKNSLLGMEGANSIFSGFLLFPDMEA
T7 sequence (P02747 29-245 limits assumed, chain 3 of 3): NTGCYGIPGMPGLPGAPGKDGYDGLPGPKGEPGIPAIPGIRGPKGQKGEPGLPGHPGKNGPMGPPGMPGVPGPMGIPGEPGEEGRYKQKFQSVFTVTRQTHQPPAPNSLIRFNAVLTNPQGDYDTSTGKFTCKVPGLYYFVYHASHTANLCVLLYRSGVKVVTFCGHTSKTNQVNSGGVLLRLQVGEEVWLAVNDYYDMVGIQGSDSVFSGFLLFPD
T10 sequence (P12314 16-288 limits assumed): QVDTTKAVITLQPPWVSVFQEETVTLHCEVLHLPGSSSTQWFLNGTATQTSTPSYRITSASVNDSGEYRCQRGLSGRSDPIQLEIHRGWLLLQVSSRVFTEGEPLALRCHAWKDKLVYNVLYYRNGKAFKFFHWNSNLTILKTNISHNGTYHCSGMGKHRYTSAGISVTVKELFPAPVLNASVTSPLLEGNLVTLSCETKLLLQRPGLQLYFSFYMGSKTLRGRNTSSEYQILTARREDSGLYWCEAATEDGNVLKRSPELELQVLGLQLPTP
T12 sequence (P08637 17-208 F176V limits assumed): as the sequence (P08637 17-208 limits assumed) above, with F160V counted along it
T3 sequence (Q08857 whole entry): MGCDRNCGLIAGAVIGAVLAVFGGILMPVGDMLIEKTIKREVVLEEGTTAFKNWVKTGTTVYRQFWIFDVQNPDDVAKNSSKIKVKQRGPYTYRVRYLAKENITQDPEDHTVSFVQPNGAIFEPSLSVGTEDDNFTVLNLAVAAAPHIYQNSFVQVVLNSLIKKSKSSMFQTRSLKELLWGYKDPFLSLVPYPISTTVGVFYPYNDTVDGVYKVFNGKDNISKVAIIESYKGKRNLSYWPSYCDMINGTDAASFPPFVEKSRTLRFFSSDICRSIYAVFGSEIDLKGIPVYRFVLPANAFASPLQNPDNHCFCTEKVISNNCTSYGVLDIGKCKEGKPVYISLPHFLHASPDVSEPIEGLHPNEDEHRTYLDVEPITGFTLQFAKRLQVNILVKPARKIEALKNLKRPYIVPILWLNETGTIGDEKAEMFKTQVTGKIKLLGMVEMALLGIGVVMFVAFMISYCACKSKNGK

B2: 1G04 (antibody, human IgG1, kappa, L234A L235A)
heavy: not shown
light: SIVMTQTPKFLLVSAGDRITITCKASQSVSDDVAWYQQKPGQSPKLLIYYASNRYTGVPDRFTGSGYGTDFTFTISTVQAEDLAVYFCQQDYSSPLTFGAGTKLEIKRTVAAPSVFIFPPSDEQLKSGTASVVCLLNNFYPREAKVQWKVDNALQSGNSQESVTEQDSKDSTYSLSSTLTLSKADYEKHKVYACEVTHQGLSSPVTKSFNRGEC
notes: Chimeric human IgG1 with L234A/L235A (LALA); variable region of ONA-0-v1; also called 01G04; 001G04; copies: 2 + 2
Percent Fatty Acid Uptake Inhibition [6]: 30.5%
IC50 of fatty acid uptake inhibition (BODIPY FL C16, HEK hCD36 cells) [7]: 1 nM
IC50 of oxLDL uptake inhibition (DiI-oxLDL, SCC25 cells) [8]: 0.36 nM
EC50 [9]: 0.42 nM
EC50 [10]: 0.34 nM
EC50 [2]: 2.07 nM
EC50 [11]: 1.23 nM
EC50 [3]: 1.99 nM
Kd [12]: 3.2 nM
koff [12]: 0.0094 s⁻¹
kon [12]: 2.9e+06 M⁻¹ s⁻¹
Kd [13]: 676 nM
EC50 (read off the curve) [14]: ~0.1 nM
binding result [15]: no binding (tested: 250 µg/mL C1q (highest point))
binding result [16]: binds
binding result [17]: no binding
binding result [18]: binds
binding result [19]: binds
binding result [20]: binds
binding result [21]: binds
binding result [22]: binds
binding result [23]: binds
binding result [24]: binds

B3: 1G06 (antibody, human IgG1, kappa)
heavy: QVQLKQSGADLVRPGASVKLSCKASGYTFTDYYINWVKQRPGQGLEWIARIYPGSGNTYYNEKFKGKATLTAEKSSSTAYMQLSSLTSEDSAVYFCARGIGGGFGMDYWGQGTSVTVSSASTKGPSVFPLAPSSKSTSGGTAALGCLVKDYFPEPVTVSWNSGALTSGVHTFPAVLQSSGLYSLSSVVTVPSSSLGTQTYICNVNHKPSNTKVDKKVEPKSCDKTHTCPPCPAPESTRGPSVFLFPPKPKDTLMISRTPEVTCVVVDVSHEDPEVKFNWYVDGVEVHNAKTKPREEQYNSTYRVVSVLTVLHQDWLNGKEYKCKVSNKALPAPIEKTISKAKGQPREPQVYTLPPSRDELTKNQVSLTCLVKGFYPSDIAVEWESNGQPENNYKTTPPVLDSDGSFFLYSKLTVDKSRWQQGNVFSCSVMHEALHNHYTQKSLSLSPGK
light: B2 light
notes: Variable regions of 1G04 on human IgG1 with L234S, L235T, G236R (STR); also called STR; copies: 2 + 2
EC50 [9]: 0.38 nM
Kd [13]: 629 nM
EC50 (read off the curve) [14]: ~0.1 nM
binding result [15]: no binding (tested: 250 µg/mL C1q (highest point))
binding result [16]: no binding
binding result [17]: no binding
binding result [25]: no binding
binding result [18]: no binding
binding result [19]: binds
binding result [20]: binds
binding result [21]: binds
binding result [22]: no binding
binding result [23]: no binding
binding result [24]: no binding

B5: 1G03 (antibody, V domains shown)
VH: QVQLKQSGADLVRPGASVKLSCKASGYTFTDYYINWVKQRPGQGLEWIARIYPGSGNTYYNEKFKGKATLTAEKSSSTAYMQLSSLTSEDSAVYFCARGIGGGFGMDYWGQGTSVTVSS
VL: SIVMTQTPKFLLVSAGDRITITCKASQSVSDDVAWYQQKPGQSPKLLIYYASNRYTGVPDRFTGSGYGTDFTFTISTVQAEDLAVYFCQQDYSSPLTFGAGTKLEIK
EC50 [9]: 0.38 nM
EC50 (read off the curve) [14]: ~0.1 nM

Second part, led by results:

EC50 [2]: 0.72 nM
EC50 [3]: 158 nM
EC50 [4]: 0.46 nM
EC50 [5]: 2.66 nM
B1: 26G04 (antibody, human IgG1, V domains shown)
VH: QVQMKESGAELMKPGASVKISCKATGYIFSNYWIEWLKERPGHGLEWIGDFLPGSSSANYNEKFKGKATFTADTSSNTAYMQLSSLTSEDSAVYYCVPFTVEVTDAMDYWGQGTSVTVSS
VL: DIVLTQSHKFMSTSVGDRVSITCKASQDVSTAVAWYQQKPGQSPKLLIYSASYRYTGVPDRFTGSGSGTDFTFTISSVQAEDLAVYYCQQHYSTPRTFGGGTKLEIK
notes: Chimeric: mouse variable regions on human IgG1 LALA (L234A/L235A)
binding result [1]: no binding (tested: 500 nM top concentration)

EC50 [9]: 0.38 nM
EC50 (read off the curve) [14]: ~0.1 nM
B4: 1G05 (antibody, V domains shown)
VH: B5 VH
VL: B5 VL
notes: also called LALAPG

EC50 [4]: 0.27 nM
EC50 [5]: 2.5 nM
B6: 31G04 (antibody, human IgG1, V domains shown)
VH: QVQLQQSGSELRSPGSSVKLSCKDFDSEVFPIAYMSWVRQKPGHGFEWIGDILPSIGSTIYGEKFEDKATLDADTVSNTAYLELNSLTSEDSAIYYCARDYYGSSYGYFDVWGAGTTVTVPS
VL: DIVLTQSPASLAVSLGQRATISCRASESVDSYGNSFMHWYQQKPGQPPKLLIYRASNLESGIPARFSGSGSRTDFTLTINPVEADDVATYYCQQSNEDPYTFGGGTKLEIK
notes: as for B1
binding result [1]: no binding (tested: 500 nM top concentration)
